Measured values as given in the nanobody polyreactivity screen of Harvey et al. (2022).

Experiment: yeast display, Sf9 membrane polyspecificity reagent, FACS + sequencing; frameworks hold sequencing errors
Method in brief: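 Polyreactivity labels are assigned by the sorting gate from which each nanobody was recovered. The gates were low and high (top ~1%), set on anti-HA fluorescence for expression and streptavidin fluorescence for reagent binding. Before sorting, galactose-induced (36–48 hours) yeast display cells were stained for 1 hour at 4 °C with 10% biotinylated, detergent-solubilized Sf9 membrane reagent.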

With “QVQLEVSGGGLVQAGGSLLLSCAASGFTFYFYAMGWSRQATGTERELVAAISRSGSRTYYADSVKGRFTISRDNAKNTVYLQMNSLKPEDTAVYYCARVRPRGLYFVLHYDYWGQGTHVTVSS” the “polyreactivity (PSR sort gate)” value was “high polyreactivity”.

For “QVQLVESGGGLVQAGGSLRLSCAASGSTFRYYSMGWYRQAPGKERELVAAITRSGTSTYYADSVKGRFTISRDTAKNTVYLQMNSLQPEDTAFYYCNAVTPYSREYDYWGQGTQVTVSS”, the “polyreactivity (PSR sort gate)” value was “high polyreactivity”.

In the case of “QVQLVQSGGGLVKAGGSLRLRCAASGFTFVKYAMGCYRQAPGKERELIAVISRRGGSTYYADSVKGRFTISRDNAKNTVYLQMNSLKPEDSAVYYCAGVYYLYSAWRYDYWGLGTQVTVSS”, the “polyreactivity (PSR sort gate)” value is reported as “high polyreactivity”.

For “QVQLVESGGGLVKAGGSLRLSSAASGRTFFRNAMGWYRQEPGKERELVAVISDNGGTNYADSVKGRFTMSRDNAKNTVYLQLNSLKPEDTAVDYCATPKRRRYPYYYWGLGTQVTVSS”, the “polyreactivity (PSR sort gate)” value was “high polyreactivity”.

With “QVQLVESGGGLVQEGGSLRLSCAASGLIFRYYGMGWYRQAPGKERELVAAIRWSAGSTYYADSVKGRFTNSRDYAKITVYFQMNSLKPEDTAVYYCAVAIGYVYKPYYYWGQGTQVTVSS” the “polyreactivity (PSR sort gate)” value was “high polyreactivity”.

With “QVQLVESGGGLVQAGGSLRLSCAATGSNFINYAMGWYRQAPGKERELVAAYADSVKGRFTISRDNAKNTVYLQMNSLKPEDTAVYYCNAVTGEWGQGTQVTVSS” the “polyreactivity (PSR sort gate)” value was “low polyreactivity”.

In the case of “QVQLVESGGALVQAGGSLRLSCAASGSTFNRNAMGWYRPAPGKERELVAAISSRGGSTFYADSVMGRFTISRDNATNTVYLQMNSLKPEDTAVYYCNALIVSSWVRYDYWRQGTQVTVSS”, the “polyreactivity (PSR sort gate)” value is reported as “high polyreactivity”.

With “QVQLVESGGGLVQAGGSLRLSCAASGSTFRSNAMGWYRQAPGKERELVAGISRRGGSTYYADSVTGRVTISRDNAKNTVYLQMNSLKPEDTAVDYCAASSRSFIRVYYWGQGTQVTVSS” the “polyreactivity (PSR sort gate)” value was “high polyreactivity”.

With “QVQLVESGGGLVQAGGSLRLSCAASGSTFTGYTMGWYRQAPGKERELVAAISRRGTSTYYADSVKGRFTISRDNAKNSVYLQMNSLKPEDTAVYYCADYQGQKGYDYWGQGTQVTVSS” the “polyreactivity (PSR sort gate)” value was “high polyreactivity”.

With “QVQLVESGGGLVQAGGSLRLSCAASGRIFTVNAMGWYRQAPGKESELVASIRYRGSSTYYADSVKGRFTISRDNAKNTVYLQMNSLKPEDTAVYYCAAVVRQYRPPGLYDYWGQGTQVTVSS” the “polyreactivity (PSR sort gate)” value was “high polyreactivity”.

With “QVQLVESGGGLVQAGGSLRLSCAASGIIFFAYAMGWYRQAPGKERELVAAISSSGGRTYYSDSVKGRFTISRDNAKNTVYLQMNSMIPEDTAVYYCTARWHGSFDYWGQGTQVTVSS” the “polyreactivity (PSR sort gate)” value was “low polyreactivity”.

For “QVQLVESGGGLVQAGGSLRLSCAASGSTFWWKTMGWYRLAPGKERELVADIRTSGGGTYYADSVKGRFTISRDNAKNNVYLQMYSLKPEDTAVYYCNADPKWEMGSWGQGTQVTVSS”, the “polyreactivity (PSR sort gate)” value was “low polyreactivity”.

In the case of “QVQLVESGGGLVQAGGSLRLSCAASGRIFDGYAMGWYRQAPGKESELVAAISSRGGRTYYADSVKGRFTISRDNAKNTVYLQMNSLKPEDTAVYYCAGDDPYGEGDYWGQGTQVTVSS”, the “polyreactivity (PSR sort gate)” value is reported as “low polyreactivity”.

With “QVQLVESGGGLVQAGGSLRLSCAASGSTFYYYTMGWSRQAPGKERELVAAITYSGGSTRYADSVKGRFTISRDNAKNTVYLQMNSLKPEDTAVYYCAAELTEWTNGFDYWGQGTQVTVSS” the “polyreactivity (PSR sort gate)” value was “high polyreactivity”.

With “QGQLVESGGGLVQAGGSLRLTCAASGFIFDNYAMGWYRHAPGKERELVADISWGGGSTYYADSVKGRFTISRDNAKNTVYLQMNSLTPEDTAVYYCDAQYSYRMDYWGQGTQVTVSS” the “polyreactivity (PSR sort gate)” value was “low polyreactivity”.

With “QVQLVESGGGLVQAGGSLSLSCAASGFTFYYYAMGLYRQAPGKERELVAAISWSGGSTYYADSVKGRFTISRDIAKNSVYLQMNCLKPEYTAVYYCNAVGYTAYDYWGQGTQVTVSS” the “polyreactivity (PSR sort gate)” value was “high polyreactivity”.

With “QVQLVESGGGLVQAGGSLRLSCAASGRIFRHNTLGWYRQAPGKEREFVAAISRNGGITYYADSVKGRFTISRDNAKNTVYLQMNSLKPEDTAVYYCNAYTYRQNDYWGQGTQVTVSS” the “polyreactivity (PSR sort gate)” value was “high polyreactivity”.

For “QVQLVESGGGIVQAGGRLRKSCAASGRTFDSNAMGWYRQAPGKERELVAGISESGGSTYYADSVKGRFTISRDNAKNTVYLQMNSLKPEDTAVYYCDYSGITVYYHRAVDFIVSYDYWGQGTQVTVSS”, the “polyreactivity (PSR sort gate)” value was “low polyreactivity”.
